Data as given in article PMC8062120.

What was measured:
[1] = target: F-actin (rabbit skeletal muscle actin, polymerized), P68135; assay: F-actin co-sedimentation assay; settings: chain shown with the change; for response: 8 μM protein, percentage of theoretical total binding (100%), parent: est. 95, read off a plot
[2] = target: T1, F-actin (rabbit skeletal muscle actin, polymerized) (rabbit), P68135; assay: co-sedimentation; F-actin co-sedimentation, conditions B2 (PIPES pH 6.8, 100 mM NaCl); fixed 6 μM myotilin fragment in 20 μl mixed with pre-polymerized F-actin (0 to 60 μM) in 20 μl; one site-specific binding fit; apparent Kd; settings: remark: other sources report otherwise
[3] = target: T1, F-actin (rabbit skeletal muscle actin, …); assay: co-sedimentation; F-actin co-sedimentation, conditions B1 (HEPES pH 7.4); fixed 16 μM myotilin construct in 20 μl mixed with pre-polymerized F-actin (0–120 μM) in 20 μl; room temperature 30 min, 125,000 × g; densitometry, one site-specific binding fit; apparent Kd; settings: remark: other sources report otherwise

Row | Binder | response [1] [% bound] | also measured
1 | Myotilin Ig1Ig2^250–444 (Ig1Ig2 tandem), Q9UBF9 K359A (protein) PRFIQVPENMSIDEGRFCRMDFKVSGLPAPDVSWYLNGRTVQSDDLHKMIVSEKGLHSLIFEVVRASDAGAYACVAKNRAGEATFTVQLDVLAKEHKRAPMFIYKPQSKAVLEGDSVKLECQISAIPPPKLFWKRNNEMVQFNTDRISLYQDNTGRVTLLIKDVNKKDAGWYTVSAVNEAGVTTCNTRLDVTARP | 72 | 
2 | Myotilin Ig1Ig2^250–444 (Ig1Ig2 tandem), Q9UBF9 R405K (protein) PRFIQVPENMSIDEGRFCRMDFKVSGLPAPDVSWYLNGRTVQSDDLHKMIVSEKGLHSLIFEVVRASDAGAYACVAKNRAGEATFTVQLDVLAKEHKRAPMFIYKPQSKKVLEGDSVKLECQISAIPPPKLFWKRNNEMVQFNTDRISLYQDNTGKVTLLIKDVNKKDAGWYTVSAVNEAGVTTCNTRLDVTARP |  | Kd ([1]; B1 conditions (asterisk)): 7.5 µM
3 | Myotilin Ig1Ig2^250–444 (Ig1Ig2 tandem), Q9UBF9 K354A; K359A (protein) PRFIQVPENMSIDEGRFCRMDFKVSGLPAPDVSWYLNGRTVQSDDLHKMIVSEKGLHSLIFEVVRASDAGAYACVAKNRAGEATFTVQLDVLAKEHKRAPMFIYAPQSKAVLEGDSVKLECQISAIPPPKLFWKRNNEMVQFNTDRISLYQDNTGRVTLLIKDVNKKDAGWYTVSAVNEAGVTTCNTRLDVTARP | 42 | 
4 | Myotilin Ig1Ig2^250–444 (Ig1Ig2 tandem), Q9UBF9 250-444 (domain or fragment) PRFIQVPENMSIDEGRFCRMDFKVSGLPAPDVSWYLNGRTVQSDDLHKMIVSEKGLHSLIFEVVRASDAGAYACVAKNRAGEATFTVQLDVLAKEHKRAPMFIYKPQSKKVLEGDSVKLECQISAIPPPKLFWKRNNEMVQFNTDRISLYQDNTGRVTLLIKDVNKKDAGWYTVSAVNEAGVTTCNTRLDVTARP |  | Kd [2]: 12.9 µM; Kd [3]: 9.2 µM
5 | Myotilin Ig1Ig2^250–444 (Ig1Ig2 tandem), Q9UBF9 Q356A (protein) PRFIQVPENMSIDEGRFCRMDFKVSGLPAPDVSWYLNGRTVQSDDLHKMIVSEKGLHSLIFEVVRASDAGAYACVAKNRAGEATFTVQLDVLAKEHKRAPMFIYKPASKKVLEGDSVKLECQISAIPPPKLFWKRNNEMVQFNTDRISLYQDNTGRVTLLIKDVNKKDAGWYTVSAVNEAGVTTCNTRLDVTARP | 94 | 
6 | Myotilin Ig1Ig2^250–444 (Ig1Ig2 tandem), Q9UBF9 K354A (protein) PRFIQVPENMSIDEGRFCRMDFKVSGLPAPDVSWYLNGRTVQSDDLHKMIVSEKGLHSLIFEVVRASDAGAYACVAKNRAGEATFTVQLDVLAKEHKRAPMFIYAPQSKKVLEGDSVKLECQISAIPPPKLFWKRNNEMVQFNTDRISLYQDNTGRVTLLIKDVNKKDAGWYTVSAVNEAGVTTCNTRLDVTARP | 55 | 
7 | Myotilin Ig1Ig2^250–444 (Ig1Ig2 tandem), Q9UBF9 K358A (protein) PRFIQVPENMSIDEGRFCRMDFKVSGLPAPDVSWYLNGRTVQSDDLHKMIVSEKGLHSLIFEVVRASDAGAYACVAKNRAGEATFTVQLDVLAKEHKRAPMFIYKPQSAKVLEGDSVKLECQISAIPPPKLFWKRNNEMVQFNTDRISLYQDNTGRVTLLIKDVNKKDAGWYTVSAVNEAGVTTCNTRLDVTARP | 80 | 
8 | Full-length myotilin with N-terminal thioredoxin tag (Trx-MYOT), Q9UBF9 1-498 (natural protein) MFNYERPKHFIQSQNPCGSRLQPPGPETSSFSSQTKQSSIIIQPRQCTEQRFSASSTLSSHITMSSSAFPASPQQHAGSNPGQRVTTTYNQSPASFLSSILPSQPDYNSSKIPSAMDSNYQQSSAGQPINAKPSQTANAKPIPRTPDHEIQGSKEALIQDLERKLKCKDTLLHNGNQRLTYEEKMARRLLGPQNAAAVFQAQDDSGAQDSQQHNSEHARLQVPTSQVRSRSTSRGDVNDQDAIQEKFYPPRFIQVPENMSIDEGRFCRMDFKVSGLPAPDVSWYLNGRTVQSDDLHKMIVSEKGLHSLIFEVVRASDAGAYACVAKNRAGEATFTVQLDVLAKEHKRAPMFIYKPQSKKVLEGDSVKLECQISAIPPPKLFWKRNNEMVQFNTDRISLYQDNTGRVTLLIKDVNKKDAGWYTVSAVNEAGVTTCNTRLDVTARPNQTLPAPKQLRVRPTFSKYLALNGKGLNVKQAFNPEGEFQRLAAQSGLYESEEL |  | Kd [2]: 0.29 µM

Now from value to binder, other results behind:

Row | response [1] [% bound] | Binder | also measured
9 | 87 | Myotilin Ig1Ig2^250–444 (Ig1Ig2 tandem), Q9UBF9 K367A (protein) PRFIQVPENMSIDEGRFCRMDFKVSGLPAPDVSWYLNGRTVQSDDLHKMIVSEKGLHSLIFEVVRASDAGAYACVAKNRAGEATFTVQLDVLAKEHKRAPMFIYKPQSKKVLEGDSVALECQISAIPPPKLFWKRNNEMVQFNTDRISLYQDNTGRVTLLIKDVNKKDAGWYTVSAVNEAGVTTCNTRLDVTARP | 
10 | 87 | Myotilin Ig1Ig2^250–444 (Ig1Ig2 tandem), Q9UBF9 K411A (protein) PRFIQVPENMSIDEGRFCRMDFKVSGLPAPDVSWYLNGRTVQSDDLHKMIVSEKGLHSLIFEVVRASDAGAYACVAKNRAGEATFTVQLDVLAKEHKRAPMFIYKPQSKKVLEGDSVKLECQISAIPPPKLFWKRNNEMVQFNTDRISLYQDNTGRVTLLIADVNKKDAGWYTVSAVNEAGVTTCNTRLDVTARP | 
